The text below walks through data of PMC8664259.

The data set deals with T1, TAF7 (WT) (UniProt Q15545 1-349).
T1 sequence: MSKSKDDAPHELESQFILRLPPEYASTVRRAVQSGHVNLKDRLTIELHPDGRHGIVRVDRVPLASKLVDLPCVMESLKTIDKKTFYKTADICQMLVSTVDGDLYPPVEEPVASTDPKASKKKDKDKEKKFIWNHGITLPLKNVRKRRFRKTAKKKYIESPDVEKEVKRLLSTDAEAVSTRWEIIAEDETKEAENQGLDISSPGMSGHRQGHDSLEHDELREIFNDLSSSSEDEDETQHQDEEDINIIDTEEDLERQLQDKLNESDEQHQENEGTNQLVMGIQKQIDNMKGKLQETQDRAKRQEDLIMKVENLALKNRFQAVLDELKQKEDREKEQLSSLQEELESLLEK
In words: EMSA. Background: A gel shift assay detects complexes by their altered migration in electrophoresis.

B1: TARmut RNA (structured_RNA)
RNA: GGCAGAAAGGAGCAUUGGAGCUCUCUGCC
B1: the binding result was “no binding”.

B2: HIV-1 TAR RNA (structured_RNA)
RNA: GGCAGAUCUGAGCCUGGGAGCUCUCUGCC
As for B2, the binding result is on record as “binds”.
